Measured values reported in patent US20170037124A1 (Regeneron, published 2017).

T1: monkey ANGPTL8 expressed with C-terminal mouse IgG2a Fc tag (MfANGPTL8-mFc; SEQ ID NO: 341) (cynomolgus monkey)
T1 construct: also called cynomolgus monkey ANGPTL8
T1 chain: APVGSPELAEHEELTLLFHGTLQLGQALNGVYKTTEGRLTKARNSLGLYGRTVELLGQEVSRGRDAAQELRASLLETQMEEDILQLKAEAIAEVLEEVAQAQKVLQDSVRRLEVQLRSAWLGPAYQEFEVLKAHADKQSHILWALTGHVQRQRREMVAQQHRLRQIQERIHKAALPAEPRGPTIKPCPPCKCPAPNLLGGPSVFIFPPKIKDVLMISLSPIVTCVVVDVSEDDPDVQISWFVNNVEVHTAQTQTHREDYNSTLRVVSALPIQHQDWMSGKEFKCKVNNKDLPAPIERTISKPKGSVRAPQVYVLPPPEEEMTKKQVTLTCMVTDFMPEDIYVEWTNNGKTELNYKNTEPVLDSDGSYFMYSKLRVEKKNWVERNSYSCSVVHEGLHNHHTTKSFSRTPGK

T2: human ANGPTL8 expressed with C-terminal mouse IgG2a Fc tag (hANGPTL8-mFc; SEQ ID NO: 340) (human)
T2 construct: also called Angiopoietin-like protein 8
T2 chain: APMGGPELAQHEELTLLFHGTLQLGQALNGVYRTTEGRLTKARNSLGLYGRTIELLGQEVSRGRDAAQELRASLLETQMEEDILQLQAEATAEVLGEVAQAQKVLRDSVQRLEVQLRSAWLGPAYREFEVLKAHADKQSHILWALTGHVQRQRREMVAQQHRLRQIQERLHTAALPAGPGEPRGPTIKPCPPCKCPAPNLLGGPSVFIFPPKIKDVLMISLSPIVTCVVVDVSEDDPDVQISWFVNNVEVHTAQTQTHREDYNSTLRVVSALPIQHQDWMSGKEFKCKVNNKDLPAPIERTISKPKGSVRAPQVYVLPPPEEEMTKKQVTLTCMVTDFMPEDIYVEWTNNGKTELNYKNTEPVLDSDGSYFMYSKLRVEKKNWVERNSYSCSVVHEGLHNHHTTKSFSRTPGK

T3: peptide from the N-terminal coiled-coil region of human ANGPTL3 (hANGPTL3 peptide, SEQ ID NO: 338) (human)
T3 construct: also called hANGPTL3 shift peptide
T3 peptide: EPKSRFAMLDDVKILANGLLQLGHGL

T4: peptide from the N-terminal coiled-coil region of human ANGPTL4 (hANGPTL4 peptide, SEQ ID NO: 339) (human)
T4 peptide: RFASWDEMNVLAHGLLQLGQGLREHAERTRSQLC

T5: human ANGPTL8 peptide (hANGPTL8 peptide, SEQ ID NO: 337) (human)
T5 construct: also called N-terminal region ANGPTL8 peptide
T5 peptide: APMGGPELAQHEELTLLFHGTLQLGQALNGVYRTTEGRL

B1: H4H15354P2 (antibody, human IgG4, V domains shown)
VH: QVQLVESGGGVVQPGRSLRLSCTASGFTFNNYGIHWVRQAPGKGLEWVAVISYDGSNKFYAESVRGRFTISRDNSRNTLFLQMISLRGEDSAVYYCAKDRPYYDILTAHYPSDYYFYAMDVWGHGTTVTVSS
VL: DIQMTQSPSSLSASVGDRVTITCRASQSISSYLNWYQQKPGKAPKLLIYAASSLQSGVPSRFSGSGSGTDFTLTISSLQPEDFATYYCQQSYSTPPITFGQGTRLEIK
notes: H4H prefix: human IgG4 Fc
B2: H4H15314P2 (antibody, human IgG4, V domains shown)
VH: QVQLVQSGAEVKKPGASVKVSCKASGYTFTSYDINWVRQATGQGLEWMGWMNPNGDNTGYAQKFQGRVTMTGDTSISTAYMELSSLRSEDTAVYYCAREGIWGFDPWGQGTLVTVSS
VL: DIQMTQSPSSLSASVGDRVTITCRASQDIRNDLGWYQQKPGKAPKRLIYAASSLQSGVPSRFSGSGSGTEFTLTISSLQPEDFATFYCLQHNTFPRTFGQGTKVEIK
notes: H4H prefix: human IgG4 Fc
B3: H4H15335P (antibody, human IgG4, V domains shown)
VH: QVQLVESGGGVVQPGRSLRLSCAASGFTFNNYGIHWVRQAPGKGLEWVAVISYDESNKYYADSVKGRFTISRDNSKNTLYLQMNSLRAEDTAVYYCAKDIRIAARRHYYYYGMDVWGQGTTVTVSS
VL: DIQMTQSPSSVSASVGDRVTITCRASQGISRWLAWYQQKPGKAPKLLIYAASSLESGVPARFSGSGSGTDFTLTISSLQPEDFATYYCQQANSFPITFGPGTKVDIK
notes: H4H prefix: human IgG4 Fc
B4: H4H15363P2 (antibody, human IgG4, V domains shown)
VH: EVQLVESGGGLVQPGGSLRLSCAASGFTFSNYAMSWVRQVPGKGLEWVSTISGSGGSTYYADSVKGRFTISRDNSKNSLYLQMNSLRAEDTAVYYCAKLVRGVIGWFDPWGQGTLVTVSS
VL: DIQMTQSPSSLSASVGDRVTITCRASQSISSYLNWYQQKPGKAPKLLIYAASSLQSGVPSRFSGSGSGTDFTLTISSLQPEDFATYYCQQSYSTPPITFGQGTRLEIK
notes: H4H prefix: human IgG4 Fc
B5: H4H15361P2 (antibody, human IgG4, V domains shown)
VH: EVQLVESGGGLVQPGRSLRLSCTASGFSFGDNAMGWVRQAPGKGLEWVSFIRRKASGGTTEYAASVKGRFTISRDDSKSIAYLQMNSLKTEDTGVYYCTRGGAVYGYWGQGTLVTVSS
VL: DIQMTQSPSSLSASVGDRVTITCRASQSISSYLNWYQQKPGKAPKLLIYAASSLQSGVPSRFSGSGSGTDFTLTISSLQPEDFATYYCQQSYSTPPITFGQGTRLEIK
notes: H4H prefix: human IgG4 Fc
B6: H4H15357P2 (antibody, human IgG4, V domains shown)
VH: EVQLVESGGGLVKPGGSLRLSCTASGFTFGNAWMSWVRQAPGKGLEWVGLIKGKTDGGTTNYAAPVKGRFTISRDDSKNTLYLHLNSLRTEDTALYYCTTDQVELRQYYYYGLDVWGQGTTVTVSS
VL: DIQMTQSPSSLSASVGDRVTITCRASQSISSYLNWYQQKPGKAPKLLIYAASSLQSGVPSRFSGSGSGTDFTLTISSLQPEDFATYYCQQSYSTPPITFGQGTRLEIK
notes: H4H prefix: human IgG4 Fc
B7: H4H15355P2 (antibody, human IgG4, V domains shown)
VH: QVQLVESGGGVVQPGRSLRLSCAASGFTFTNYAMHWVRQAPGKGLEWVAVISYDGSHTYFADSVKGRFTMSRDNSKNTISLQMNSLRPEDTAVYFCAGGGATTWFYFYGLDVWGQGTTVTVSS
VL: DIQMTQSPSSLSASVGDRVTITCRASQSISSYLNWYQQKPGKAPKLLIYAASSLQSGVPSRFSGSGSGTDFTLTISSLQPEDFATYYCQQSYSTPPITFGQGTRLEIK
notes: H4H prefix: human IgG4 Fc
B8: H4H15347P (antibody, human IgG4, V domains shown)
VH: EVQLVESGGGLVQPGGSLRLSCAASGFTFRNYAMNWARQAPGKGLEWVSGITGSGGATYYADSVKGRFTISRENSKNTLFLQMDTLRAEDTAVYYCAKDRRYFPTSGGPQWGQGTLVTVSS
VL: DIVMTQSPLSLPVTPGEPASISCRSSRSLLHSSGYNYLDWYLQKPGQSPQLLLYLGSNRASGVPDRFSGSGSGTYFTLKISRVDAEDVGVYYCMQALQTPWTFGQGTKVEIK
notes: H4H prefix: human IgG4 Fc

Legend:
[1] = target: T1, monkey ANGPTL8 expressed with …; assay: BLI Octet, captured antigen, 100 nM mAb, 25C
Description: (§1) Binding of ANGPTL8 antibodies to human and monkey ANGPTL8 proteins was investigated using Bio-layer Interferometry with an Octet HTX biosensor platform (ForteBio, A Division of Pall Life Sciences). All experiments were performed at 25° C. in 10 mM HEPES pH 7.4, 150 mM NaCl, 0.05% v/v Surfactant Tween-20, and 1 mg/ml BSA with the reaction multiwell plate agitated at 1000 rpm. Approximately 1.6 nm of human ANGPTL8 produced with a C-terminal mouse IgG2a Fc tag (hANGPTL8-mFc; SEQ ID NO: 340) or cynomolgus monkey ANGPTL8 produced with a C-terminal mouse IgG2a Fc tag (MfANGPTL8-mFc; SEQ ID NO: 341) was captured onto anti-mFc (AMC) Octet biosensors by submerging the sensors into wells containing 10 μg/mL of each protein for 4 minutes. Under the same conditions a negative control protein with the same mFc tag (hLDLR-mFc) was also coupled to the AMC sensor. All four sensors, […] and one blank, were then submerged into wells containing 100 nM of different ANGPTL8 monoclonal antibodies or an isotype control for 4 minutes.

[2] = target: T2, human ANGPTL8 expressed with C-terminal …; assay: BLI Octet, captured antigen, 100 nM mAb, 25C
Description: as §1

[3] = target: T6, anti-mFc (AMC) Octet biosensor, blank; assay: BLI Octet, blank AMC sensor, 100 nM mAb, 25C
T6 construct: Sensor without captured protein, used as blank; also called Blank AMC Sensor
Description: as §1

[4] = target: T3, peptide from the N-terminal coiled-coil …; assay: SPR, captured mAb, 500 nM peptide, 25C
Description: (§2) The assay utilized a format where ANGPTL8 antibodies were captured on the sensor surface and peptides were injected over the antibody surface. Peptides from the N-terminal coiled-coil region of human ANGPTL3 (hANGPTL3 peptide, SEQ ID NO: 338) and human ANGPTL4 (hANGPTL4 peptide, SEQ ID NO: 339) were also included as controls. Also included was a control antibody (H4H268P from US2011/0159015A1) that binds to the ANGPTL4 peptide and a negative isotype control antibody. All binding studies were performed in 10 mM HEPES pH 7.4, 150 mM NaCl, 3 mM EDTA, and 0.05% v/v Surfactant Tween-20 (HBS-ET running buffer) at 25° C. The HCA sensor surface was derivatized via amine coupling to a monoclonal mouse anti-human Fc antibody (GE, # BR-1008-39), and to this surface was captured approximately 1000 RU of each ANGPTL8 antibody or control antibody. Peptide stock solutions were diluted in HBS-ET running buffer to 500 nM and injected over the antibody-captured surfaces for 4 minutes at a flow rate of 30 μL/minute followed by the dissociation of bound peptide in HBS-ET running buffer for 10 minutes.
(§3) Dissociative half-lives (t½) were calculated from kd as: […]

[5] = target: T4, peptide from the N-terminal coiled-coil …; assay: SPR, captured mAb, 500 nM peptide, 25C
Description: as §2, §3

[6] = target: T5, human ANGPTL8 peptide (hANGPTL8 …); assay: SPR, captured mAb, 500 nM peptide, 25C
Description: as §2, §3

Binder | mAb Binding Response (nm) [1] [nm] | mAb Binding Response (nm) [2] [nm] | mAb Binding Response (nm) [3] [nm] | 500 nM hANGPTL3 peptide Bound (RU) [4] [RU] | binding result [4] | 500 nM hAngPTL4 peptide Bound (RU) [5] [RU] | binding result [5] | 500 nM hANGPTL8 peptide Bound (RU) [6] [RU] | binding result [6]
B1 | 0.03 | 0.05 | 0.02 | 0 | no binding (tested: <9 RU at 500 nM peptide) | 0 | no binding (tested: <9 RU at 500 nM peptide) | 0 | no binding (tested: <9 RU at 500 nM peptide)
B2 | 0.01 | 0.04 | 0 | 0 | no binding (tested: <9 RU at 500 nM peptide) | 1 | no binding (tested: <9 RU at 500 nM peptide) | 0 | no binding (tested: <9 RU at 500 nM peptide)
B3 | 0.04 | 0.06 | 0.01 | -1 |  | 1 | no binding (tested: <9 RU at 500 nM peptide) | 0 | no binding (tested: <9 RU at 500 nM peptide)
B4 | 0.26 | 0.25 | 0.02 | 0 | no binding (tested: <9 RU at 500 nM peptide) | 0 | no binding (tested: <9 RU at 500 nM peptide) | 0 | no binding (tested: <9 RU at 500 nM peptide)
B5 | 0.21 | 0.2 | 0.02 | 0 | no binding (tested: <9 RU at 500 nM peptide) | 0 | no binding (tested: <9 RU at 500 nM peptide) | 4 | no binding (tested: <9 RU at 500 nM peptide)
B6 | 0.08 | 0.13 | 0.02 | 0 | no binding (tested: <9 RU at 500 nM peptide) | 0 | no binding (tested: <9 RU at 500 nM peptide) | 0 | no binding (tested: <9 RU at 500 nM peptide)
B7 | 0.13 | 0.15 | 0.03 | 0 | no binding (tested: <9 RU at 500 nM peptide) | 0 | no binding (tested: <9 RU at 500 nM peptide) | 0 | no binding (tested: <9 RU at 500 nM peptide)
B8 | 0.29 | 0.25 | 0.03 | -1 |  | 0 | no binding (tested: <9 RU at 500 nM peptide) | 0 | no binding (tested: <9 RU at 500 nM peptide)
